Target: 11cby polypeptide of SEQ ID NO: 2 (Homo sapiens, UniProt Q99705)
Experiment: binding of 11cby polypeptide to melanin-concentrating hormone
Conditions: qualitative statement, method or value not given

Sequence of 11cby polypeptide of SEQ ID NO: 2 (Q99705 whole entry): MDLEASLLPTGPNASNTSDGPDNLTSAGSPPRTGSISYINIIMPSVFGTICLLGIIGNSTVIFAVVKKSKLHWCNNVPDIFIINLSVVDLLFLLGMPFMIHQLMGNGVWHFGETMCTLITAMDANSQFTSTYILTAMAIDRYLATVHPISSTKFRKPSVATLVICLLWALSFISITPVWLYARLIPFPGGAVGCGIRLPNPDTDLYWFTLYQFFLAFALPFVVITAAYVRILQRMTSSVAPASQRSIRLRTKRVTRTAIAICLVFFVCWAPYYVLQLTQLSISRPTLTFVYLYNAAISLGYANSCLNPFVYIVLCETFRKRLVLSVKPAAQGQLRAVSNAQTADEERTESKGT

binding to 11cby polypeptide (7-transmembrane receptor): bind
Substance: H-Asp-Phe-Asp-Met-Leu-Arg-Cys-Met-Leu-Gly-Arg-Val-Tyr-Arg-Pro-Cys-Trp-Gln-Val-OH [MCH]
